Residue numbers refer to the chain shown, from its start.
B1: Nb01 (VHH)
VHH: QVQLQESGGGLVQAGGSLRLSCAASGRTFNSYVMGWFRQAPGKEREFVAAISWSGGNAYYADSVKGRFTISRDNAENTVYLLMNSLKPEDTAVYYCAAALTRLARNEYDYLGQGTQVTVSS
notes: from an alpaca immunized with full-length VAR2CSA; pHEN6c vector; also called Nanobody 01; VHH; source: E. coli WK6, periplasmic extract, purified (HisTrap); not shown: His6, C-terminal, kept
B2: Nb10 (VHH)
VHH: QVQLQESGGGLVQAGGSLRLSCAASGRTFSSNLMGWLRQAPGKEREFVAAMSMSGGDTFYADSVKGRFTISRDNAKNMVHLQMNSLKPEDTAIYYCAAADVRLSAYEYDYWGQGTQVTVSS
notes: from an alpaca immunized with full-length VAR2CSA; pHEN6c vector; also called Nanobody 10; VHH; source: E. coli WK6, periplasmic extract, purified (HisTrap); not shown: His6, C-terminal, kept
B3: Nb07 (VHH)
VHH: QVQLQESGGGLVQAGGSLRLSCAASGFTFDDYVIGWFRQAPGKEREGVSCISRSDGSTYYADSVKGRFTISSDNAKNTIYLQMNSLKPEDTAVYHCAAAMTHFGLGPGPNEYDYWGQGTQVTVSS
notes: from an alpaca immunized with full-length VAR2CSA; pHEN6c vector; also called Nanobody 07; VHH; source: E. coli WK6, periplasmic extract, purified (HisTrap); not shown: His6, C-terminal, kept
B4: Nb08 (VHH)
VHH: QVQLQESGGGLVQPGGSLRLSCVTSGFTLDYYNIGWFRQAPGKEREGVSCISISDGSTYYADSVKGRFTISRDNAKNTVYLQMNSLKPEDTAVYYCAIRLDGSSCDPEEYDYWGQGTQVTVSS
notes: from an alpaca immunized with full-length VAR2CSA; pHEN6c vector; also called Nanobody 08; VHH; source: E. coli WK6, periplasmic extract, purified (HisTrap); not shown: His6, C-terminal, kept
B5: Nb11 (VHH)
VHH: QVQLQESGGGLVQAGGSLRLSCAASGRTFSSYAMGWFRQAPGREREFVALISWSGGSTTYADSVKGRFTISRDNAQNTVYLQMNSLKPEDTAVYYCTAAGSFEGEYDYWGQGTQVTVSS
notes: from an alpaca immunized with full-length VAR2CSA; pHEN6c vector; also called Nanobody 11; VHH; source: E. coli WK6, periplasmic extract, purified (HisTrap); not shown: His6, C-terminal, kept
B6: Nb12 (VHH)
VHH: QVQLQESGGGLVQVGGSLRLSCAASGRTFSNYAMGWFRQAPGEEREFVAAISWSDNNTLYTDSVKGRFTISRDNAENTVYLQMNSLEPEDTAVYYCAAGRRPRLRVGLNEFDYWGQGTQVTVSS
notes: from an alpaca immunized with full-length VAR2CSA; pHEN6c vector; also called Nanobody 12; VHH; source: E. coli WK6, periplasmic extract, purified (HisTrap); not shown: His6, C-terminal, kept
B7: Nb14 (VHH)
VHH: QVQLQESGGGLVQAGGSLRLSCAASGFTLDDYGIGWFRQAPGKEHEGVSSISSGDGSTYYADSVKGRFTISSDNAKNTVYLQNSLKPEDTAVYYCAAGGLHRPLTIATTRGYGIDYWGKGTQVTVSS
notes: from an alpaca immunized with full-length VAR2CSA; pHEN6c vector; also called Nanobody 14; VHH; source: E. coli WK6, periplasmic extract, purified (HisTrap); not shown: His6, C-terminal, kept
B8: Nb15 (VHH)
VHH: QVQLQESGGGLVQPGGPLRLSCAASGFTFDNYAMGWFRQAPGKEREFVAAISWSAGTTYYADSVKGRFTISRDNAKNTVSLQMNSLKPEDTAVYYCAAAYDGITMVVEYTNEYEYDYWGQGTQVTVSS
notes: from an alpaca immunized with full-length VAR2CSA; pHEN6c vector; also called Nanobody 15; VHH; source: E. coli WK6, periplasmic extract, purified (HisTrap); not shown: His6, C-terminal, kept
B9: Nb16 (VHH)
VHH: QVQLQESGGGLVQPGGSLRLSCVASGFTFSSVGSWVRQAPGKGLEWVSAISSFSGLRSYADSVKGRFTISRDNAKNTLYLENSLKPEDTAVYYCAKGTVRVGPWLRGQGTQVTVSS
notes: from an alpaca immunized with full-length VAR2CSA; pHEN6c vector; also called Nanobody 16; VHH; source: E. coli WK6, periplasmic extract, purified (HisTrap); not shown: His6, C-terminal, kept
B10: Nb17 (VHH)
VHH: QVQLQESGGGLVQPGGSLRLSCAASGFTFSGSASWVRQAPGKELEWVSSISGFGGITDYADSVKGRFTISRDNSKNTLYLQNSLKPEDTAVYYCAKGRTGWTSSFLRGQGTQVTVSS
notes: from an alpaca immunized with full-length VAR2CSA; pHEN6c vector; also called Nanobody 17; VHH; source: E. coli WK6, periplasmic extract, purified (HisTrap); not shown: His6, C-terminal, kept
B11: Nb13 (VHH)
VHH: QVQLQESGGGLVQPGGSLRLSCAFSGRTSRNYAMAWFRQAPGKEREFVAATSWNGDITPYGVVVKGRFTISRDNAKSTVYLKMNDLKPEDTAVYYCAAEPRFAPPVVAHEYDYWGRGTQVTVSS
notes: from an alpaca immunized with full-length VAR2CSA; pHEN6c vector; also called Nanobody 13; VHH; source: E. coli WK6, periplasmic extract, purified (HisTrap); not shown: His6, C-terminal, kept
B12: Nb02 (VHH)
VHH: B5 VHH with R43K, L50F, T59S, Q76K, T97V, A99S
notes: from an alpaca immunized with full-length VAR2CSA; pHEN6c vector; also called Nanobody 02; VHH; source: E. coli WK6, periplasmic extract, purified (HisTrap); not shown: His6, C-terminal, kept
B13: Nb06 (VHH)
VHH: QVQLQESGGGLVQAGGSLRLSCAASGFTFDDYAIGWFRQAPGKEREGVSCISSSDGVTYYVDSVKGRFTISSDNAKNTVYLQMNSLKPEDTAVYHCAASPDYYCDAGFLNYGIDYWGEGTQVTVSS
notes: from an alpaca immunized with full-length VAR2CSA; pHEN6c vector; also called Nanobody 06; VHH; source: E. coli WK6, periplasmic extract, purified (HisTrap); not shown: His6, C-terminal, kept
B14: Nb03 (VHH)
VHH: QVQLQESGGGLVQAGGSLRLSCVVSGHTFSGYVMGWFRQAPGKEREFVSSISGYGGITDYADSVKGRFTMSRDNAKNTVYLRMNSLKPEDTAVYYCAVRRSGSSREYDYWGQGTQVTVSS
notes: from an alpaca immunized with full-length VAR2CSA; pHEN6c vector; also called Nanobody 03; VHH; source: E. coli WK6, periplasmic extract, purified (HisTrap); not shown: His6, C-terminal, kept
B15: Nb05 (VHH)
VHH: QVQLQESGGGLVQPRGSLRLSCTASERDFGLVVMGWHRQAPGKQRELVAQIGTGGRTNYADSVKGRFTISIDAAKNTVYLQMNNLKPEDTAVYYCNAPLSGIWGQGTQVTVSS
notes: from an alpaca immunized with full-length VAR2CSA; pHEN6c vector; also called Nanobody 05; VHH; source: E. coli WK6, periplasmic extract, purified (HisTrap); not shown: His6, C-terminal, kept

How the values were obtained:
[1] = target: T1, ID1–ID2a minimal CSA-binding region of VAR2CSA, produced in Schneider 2 (S2) cells (Plasmodium falciparum FCR3, UniProt Q6UDW7, strain); assay: ELISA; recombinant VAR2CSA protein or domain (50 nM in PBS) coated on MaxiSorp plates overnight at 4°C; Nb 50 nM in 1% skim milk in PBS, 90 min RT; detected with rabbit anti-camel and HRP anti-rabbit, OD 490 nm after 20 min; details: both partners purified
T1 construct: ID1–ID2a region; also called ID1–ID2a (S2); source: Schneider 2 (S2) cells

[2] = target: T2, VAR2CSA DBL3 domain, baculovirus-produced (Plasmodium falciparum FCR3 (implied), UniProt Q6UDW7, strain); assay: as above; details: both partners purified
T2 construct: DBL3 domain; also called DBL3X; source: baculovirus expression system, as described in [11], [20]

[3] = target: T3, VAR2CSA DBL6 domain, baculovirus-produced (Plasmodium falciparum FCR3, UniProt Q6UDW7, strain); assay: as above; details: both partners purified
T3 construct: DBL6 domain; also called DBL6ε; source: baculovirus expression system, as described in [11], [20]

[4] = target: T4, ID1–ID2a minimal CSA-binding region of VAR2CSA, produced in E. coli (Plasmodium falciparum FCR3, UniProt Q6UDW7, strain); assay: as above; details: both partners purified
T4 construct: ID1–ID2a region; also called ID1–ID2a (coli); source: E. coli

[5] = target: T5, native VAR2CSA on the surface of NF54 infected erythrocytes (Plasmodium falciparum NF54 (VAR2CSA …, UniProt Q8I639, strain)); assay: flow cytometry on cells; late stage VAR2CSA-expressing IE (FCR3, 7201, NF54) incubated with Nb (0,1 mg/ml), 30 min at 4°C; detected with mouse anti-penta-His and FITC anti-mouse; specific recognition defined by an MFI ratio >1.2; details: one partner purified
T5 construct: VAR2CSA of the P. falciparum parasite line NF54, native protein on infected erythrocytes; also called VAR2CSA-expressing IE (NF54); source: endogenous, on P. falciparum NF54-infected erythrocytes

[6] = target: T6, DBL1-ID2a protein of VAR2CSA (containing minimal CSA-binding region), baculovirus-produced (Plasmodium falciparum FCR3 (assumed for …, UniProt Q6UDW7, strain)); assay: far-Western, overlay or dot blot; Western blot: recombinant VAR2CSA domain (0,4 µg/lane) run NON-REDUCED on SDS gel, blotted to nitrocellulose, probed with 50 nM Nb in TBST; rabbit anti-camel and HRP anti-rabbit; details: both partners purified
T6 construct: DBL1-ID2a; source: baculovirus-produced

[7] = target: T7, ID1–ID2a minimal CSA-binding region of VAR2CSA, baculovirus-produced (Plasmodium falciparum FCR3, UniProt Q6UDW7, strain); assay: ELISA; recombinant VAR2CSA protein or domain (50 nM in PBS) coated on MaxiSorp plates overnight at 4°C; Nb 50 nM in 1% skim milk in PBS, 90 min RT; detected with rabbit anti-camel and HRP anti-rabbit, OD 490 nm after 20 min; details: both partners purified
T7 construct: VAR2CSA, P. falciparum FCR3; ID1–ID2a region encompassing DBL2X with the flanking parts ID1 and ID2; also called ID1–ID2a (BV); source: baculovirus expression system, as described in [11], [20]

[8] = target: T8, full-length VAR2CSA (FV2) recombinant protein, FCR3 (Plasmodium falciparum FCR3, UniProt Q6UDW7, strain); assay: as above; details: both partners purified
T8 construct: VAR2CSA (PfEMP1 family), Plasmodium falciparum strain FCR3, full-length recombinant protein; also called FV2-FCR3; source: recombinant, purified, expressed as described in [33]

[9] = target: T3, VAR2CSA DBL6 domain, …; assay: as above; details: both partners purified; remark: listed apart in the source

Row | Binder | binding result [1] | binding result [2] | binding result [3] | binding result [4] | binding result [5] | binding result [6] | binding result [7] | binding result [8] | binding result [9]
1 | B1 | binds | no binding (tested: 50 nM) | no binding (tested: 50 nM) | binds | binds | binds | binds | binds | –
2 | B2 | binds | no binding (tested: 50 nM) | no binding (tested: 50 nM) | binds | binds | binds | binds | binds | –
3 | B3 | binds | no binding (tested: 50 nM) | no binding (tested: 50 nM) | binds | binds | binds | binds | binds | –
4 | B4 | – | no binding (tested: 50 nM) | – | – | binds | – | – | binds | binds
5 | B5 | – | no binding (tested: 50 nM) | – | – | binds | – | – | binds | –
6 | B6 | binds | no binding (tested: 50 nM) | no binding (tested: 50 nM) | binds | binds | binds | binds | binds | –
7 | B7 | – | no binding (tested: 50 nM) | – | – | binds | – | – | binds | –
8 | B8 | – | no binding (tested: 50 nM) | – | – | binds | – | – | binds | binds
9 | B9 | – | no binding (tested: 50 nM) | – | – | binds | – | – | binds | –
10 | B10 | – | no binding (tested: 50 nM) | – | – | binds | – | – | binds | –
11 | B11 | – | no binding (tested: 50 nM) | – | – | – | – | – | binds | –
12 | B12 | – | no binding (tested: 50 nM) | – | – | binds | – | – | binds | –
13 | B13 | – | no binding (tested: 50 nM) | – | – | – | – | – | binds | binds
14 | B14 | – | no binding (tested: 50 nM) | – | – | binds | – | – | binds | –
15 | B15 | – | no binding (tested: 50 nM) | – | – | binds | – | – | binds | –
